Experimental findings from patent publication US20240209107A1 (Sanofi, published 2024) are described below.

The labels stand for the following.
B1: bispecific antibody L1 (anti-CD28 VHH x anti-OX40 Fab, human IgG1 Fc) (bispecific antibody)
light: not shown
heavy: not shown
chain: DVQLVESGGGVVQPGGSLRLSCAASGSFFSIDTMDWYRQAPGKQRELVTGVTSGGLTNYADSVKGRFTISIDNAKNTVYLQMNSLRPEDTALYYCSARIRTSGGGGWSTYWGQGTLVTVSSGGGGSDKTHTCPPCPAPEAAGGPSVFLFPPKPKDTLMISRTPEVTCVVVDVSHEDPEVKFNWYVDGVEVHNAKTKPREEQYNSTYRVVSVLTVLHQDWLNGKEYKCKVSNKALPAPIEKTISKAKGQPREPQVCTLPPSRDELTKNQVSLSCAVKGFYPSDIAVEWESNGQPENNYKTTPPVLDSDGSFFLVSKLTVDKSRWQQGNVFSCSVMHEALHNRFTQKSLSLSPG
notes: Three chains: anti-OX40 light chain (I), anti-OX40 heavy chain (II), anti-CD28 VHH-Fc chain (III); also called lead candidate L1
B2: bispecific antibody L3 (anti-CD28 VHH x anti-OX40 Fab, human IgG1 Fc) (bispecific antibody)
light: not shown
heavy: not shown
chain: B1 chain
notes: Three chains: anti-OX40 light chain (I), anti-OX40 heavy chain (II), anti-CD28 VHH-Fc chain (III); also called lead candidate L3
B3: bispecific antibody L2 (anti-CD28 VHH x anti-OX40 Fab, human IgG1 Fc) (bispecific antibody)
light: not shown
heavy: not shown
chain: B1 chain
notes: Three chains: anti-OX40 light chain (I), anti-OX40 heavy chain (II), anti-CD28 VHH-Fc chain (III); also called lead candidate L2
B4: bispecific antibody L4 (anti-CD28 VHH x anti-OX40 Fab, human IgG1 Fc) (bispecific antibody)
light: not shown
heavy: not shown
chain: DVQLVESGGGVVQPGGSLRLSCAASGFTFSSYYMSWVRQAPGKGLEWVSTINTDGDFTSYADSVKGRFTISRDNAKNTLYLQMNSLRPEDTALYYCARARGPYSRGSQGHDYRGQGTLVTVSSGGGGSDKTHTCPPCPAPEAAGGPSVFLFPPKPKDTLMISRTPEVTCVVVDVSHEDPEVKFNWYVDGVEVHNAKTKPREEQYNSTYRVVSVLTVLHQDWLNGKEYKCKVSNKALPAPIEKTISKAKGQPREPQVCTLPPSRDELTKNQVSLSCAVKGFYPSDIAVEWESNGQPENNYKTTPPVLDSDGSFFLVSKLTVDKSRWQQGNVFSCSVMHEALHNRFTQKSLSLSPG
notes: Three chains: anti-OX40 light chain (I), anti-OX40 heavy chain (II), anti-CD28 VHH-Fc chain (III); also called lead candidate L4
B5: bispecific antibody L6 (anti-CD28 VHH x anti-OX40 Fab, human IgG1 Fc) (bispecific antibody)
light: not shown
heavy: not shown
chain: B4 chain
notes: Three chains: anti-OX40 light chain (I), anti-OX40 heavy chain (II), anti-CD28 VHH-Fc chain (III); also called lead candidate L6
B6: bispecific antibody L5 (anti-CD28 VHH x anti-OX40 Fab, human IgG1 Fc) (bispecific antibody)
light: not shown
heavy: not shown
chain: B4 chain
notes: Three chains: anti-OX40 light chain (I), anti-OX40 heavy chain (II), anti-CD28 VHH-Fc chain (III); also called lead candidate L5
B7: L4 & L6 & L5 CD28 arm VHH (VHH-His) (VHH)
VHH: DVQLVESGGGVVQPGGSLRLSCAASGFTFSSYYMSWVRQAPGKGLEWVSTINTDGDFTSYADSVKGRFTISRDNAKNTLYLQMNSLRPEDTALYYCARARGPYSRGSQGHDYRGQGTLVTVSS
notes: Used as VHH-His in the crystal structure with CD28-His; also called L4, L6 & L5 CD28 VHH; not shown: His tag
B8: prototype OX40 arm Fab (Fab, V domains shown)
VH: EVQLVESGGVVVQPGGSLRLSCAASGFTFDDYTMHWVRQAPGKGLEWVSLISWDGGSTYYADSVKGRFTISRDNSKNSLYLQMNSLRTEDTAVYYCARDNLWGYLTYFDYWGQGTLVTVSS
VL: QSVLTQPPSVSAAPGQKVTISCSGSSSNIGNNYVSWYQQLPGTAPKLLIYDNNKRPSGIPDRFSGSKSGTSATLGITGLQTGDEADYYCGTWDSSLTAYVFGGGTKLTVL
notes: Fab of the OX40 arm of the bispecific CD28-OX40 prototype; also called prototype arm

What is called Kd is the free concentration of one partner at which half of the binding sites on the other are occupied at equilibrium, for simple one-to-one binding. For orientation: EC50 (read off the curve) means the concentration at which the effect is half-maximal. The low end stands for an effect from little substance, the high end for a need for much substance.

T5 sequence (P55899 24-297 limits assumed, chain 1 of 2): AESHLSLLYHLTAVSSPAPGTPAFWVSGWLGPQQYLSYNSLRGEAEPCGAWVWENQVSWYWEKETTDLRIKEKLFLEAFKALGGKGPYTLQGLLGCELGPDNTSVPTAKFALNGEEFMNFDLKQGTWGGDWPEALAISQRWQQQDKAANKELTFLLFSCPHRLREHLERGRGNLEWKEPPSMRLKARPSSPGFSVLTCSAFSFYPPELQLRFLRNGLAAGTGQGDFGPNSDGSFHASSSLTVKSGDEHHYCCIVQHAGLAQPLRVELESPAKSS
T5 sequence (P61769 21-119 limits assumed, chain 2 of 2): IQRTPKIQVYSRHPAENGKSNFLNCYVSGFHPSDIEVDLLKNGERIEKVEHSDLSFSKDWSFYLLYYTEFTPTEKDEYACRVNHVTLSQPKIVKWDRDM
T2 sequence (P10747 19-152 limits assumed): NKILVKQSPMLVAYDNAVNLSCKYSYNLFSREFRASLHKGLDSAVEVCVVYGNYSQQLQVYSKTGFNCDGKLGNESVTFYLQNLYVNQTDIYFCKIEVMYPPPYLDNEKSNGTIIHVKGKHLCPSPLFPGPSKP

The target in the first assay is T1, cyno OX40 (internal production), recombinant (cynomolgus monkey).
T1 construct: also called Cynomolgus Monkey OX40
Nature of the assay: SPR (Biacore 8K), bispecific captured by anti-human Fc, antigen as analyte, 1:1 model. For orientation: SPR reads the build-up and loss of mass on a sensor chip optically.
Consider B1, for which the dissociation constant Kd came out at 2.9 nM.
On the same count and under the same terms, next, B2: 15 nM; B3: 4 nM.
B4: the Kd stood at 3.7 nM.
Same read-out and setting: next, B5: 20 nM.
Still for that read-out and setting: then B6, with 3.3 nM.

Another assay concerns the target T2, human CD28 (CD28-3910H, Creative Bio Mart), recombinant (human, UniProt P10747 19-152).
T2 construct: Bought protein
Described as above.
As for B1, the Kd turned out to be 3.6 nM.
The same measure, in the same setting: next, B2: 3.3 nM; B3: 3.23 nM.
In the case of B4, the Kd was found to be 11.9 nM.
As to B5, the Kd was found to be 11.3 nM.
On the same count and under the same terms, then B6, with 9.99 nM.

A further assay addresses T3, human OX40 (10481-H08H, Sino Biological), recombinant (human, UniProt P43489 29-216).
T3 construct: Bought protein
T3 sequence (looked up): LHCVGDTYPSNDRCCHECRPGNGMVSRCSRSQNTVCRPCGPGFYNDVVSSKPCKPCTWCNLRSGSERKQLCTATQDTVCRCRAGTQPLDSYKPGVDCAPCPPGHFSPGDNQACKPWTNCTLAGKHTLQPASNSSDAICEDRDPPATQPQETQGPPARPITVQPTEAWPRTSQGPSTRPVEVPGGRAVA
Described as above.
For the molecule B1, the Kd came out at 4.3 nM.
The same measure, in the same setting: then B2, with 8.1 nM; and B3, with 6.9 nM; and B4, with 4.1 nM.
As for B5, the Kd amounted to 8.1 nM.
On the same count and under the same terms, next, B6: 6.1 nM.

A further assay addresses T4, CD28-His (amino acids 19-136 of human CD28) (human, UniProt P10747 19-136).
T4 construct: Expressed in Expi293 cells, purified by HisTrap and SEC; also called Human CD28 Amino acids 19-136; not shown: His tag
The experiment in a line: complex formation, SEC, crystal structure.
In the case of B7, the binding result is “binds”.

Another assay has as its target T5, human FcRn (Immunitrack, ITF01-200) (human, UniProt P55899 24-297; P61769 21-119).
T5 construct: captured on a Series S Sensor Chip CAP; also called recombinant human FcRN
Nature of the assay: SPR (Biacore 8K), FcRn captured on CAP chip, bispecific as analyte, pH 6.0, steady state.
In turn, B1 showed a Kd of 924 nM.
Same read-out and setting: next, B2: 990 nM.
On the same count and under the same terms, then B3, with 988 nM.
Same read-out and setting: then B4, with 574 nM; and B5, with 745 nM; and B6, with 714 nM.

The target of the next assay is T6, Human OX40 (amino acids 29-170 of human OX40) (human, UniProt P43489 29-170).
T6 construct: range 29-170
T6 sequence (looked up): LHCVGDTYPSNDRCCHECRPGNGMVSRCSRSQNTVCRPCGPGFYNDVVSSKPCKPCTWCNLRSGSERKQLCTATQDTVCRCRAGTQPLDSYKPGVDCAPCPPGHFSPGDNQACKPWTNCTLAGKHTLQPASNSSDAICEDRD
The experiment in a line: structure of the complex.
Take B8: the binding result was “binds”.

The target in another assay is T7, human OX40 on the surface of cells (HEK293 cells expressing human OX40, jurkat cells engineered to express … (human, UniProt P43489 29-277)).
T7 construct: whole, on cells; also called huOX40
T7 sequence (looked up): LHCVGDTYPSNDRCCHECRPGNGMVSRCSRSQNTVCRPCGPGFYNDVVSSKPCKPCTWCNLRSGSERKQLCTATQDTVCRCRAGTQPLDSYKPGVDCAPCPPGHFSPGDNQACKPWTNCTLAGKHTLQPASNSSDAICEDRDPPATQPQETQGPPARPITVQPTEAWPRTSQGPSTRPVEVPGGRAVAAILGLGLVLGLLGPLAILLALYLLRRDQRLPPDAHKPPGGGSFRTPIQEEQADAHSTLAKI
The experiment in a line: flow cytometry on HEK293 cells expressing human OX40; anti-human IgG Fc PE secondary; MFI. In general terms: In flow cytometry, cells or beads pass a laser one at a time.
B1: the “EC50 (read off the curve)” value is ~0.7 nM.
With B2, the “EC50 (read off the curve)” value was ~1 nM.
Same read-out and setting: next, B3: ~1 nM; B4: ~1 nM; B5: ~1 nM.
On the same count and under the same terms, then B6, with ~1 nM.
